Molecular target: T1, Claudin3 (Homo sapiens (Human), UniProt O15551 1-220)
T1 construct: also called CLDN3
T1 sequence: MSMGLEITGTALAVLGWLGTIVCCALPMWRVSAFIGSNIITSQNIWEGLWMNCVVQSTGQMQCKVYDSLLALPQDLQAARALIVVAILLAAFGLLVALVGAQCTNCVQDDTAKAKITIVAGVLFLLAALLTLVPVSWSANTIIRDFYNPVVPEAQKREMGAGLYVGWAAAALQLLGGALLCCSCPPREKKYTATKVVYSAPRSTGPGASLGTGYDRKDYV
Test: fluorescence of FITC-labeled h4G3cys on CLDN3/TOV-112D cells, one-to-one two-state model

B1: cysteine-substituted anti-Claudin3 human monoclonal antibody h4G3cys (light chain Q125C) (antibody, human IgG1, kappa, V domains shown)
VH: EVQLLESGGGLVQPGGSLRLSCAASGFTFSSYAMSWVRQAPGKGLEWVSIINPSGASTSHAQRFQGRFTISRDNSKNTLYLQMNSLRAEDTAVYYCARYGRYGSFDIWGQGTLVTVSS
VL: QSVLTQPPSASGTPGQRVTISCSGSTSNIGRNYVSWYQQLPGTAPKLLIYDTSNKHFGVPDRFSGSKSGTSASLAISGLRSEDEADYYCQSYDSSKVVFGGGTKLTVLR
notes: also called modified anti-Claudin3 antibody; anti-Claudin3 antibody variant
Kd: 5.24 nM
